Measurements published in publication PMC8122247, “Rational Design of Resveratrol O-methyltransferase for the Production of Pinostilbene” (International Journal of Molecular Sciences, 2021).
Positions count from the first letter of the chain named. Numbers in names are those of the source.

Target: the molecule itself
Assay: SEC; Superdex 75 10/300 GL, 50 mM Tris-HCl pH 7.5, flow 0.5 mL/min; protein at 2 µg/µL, 150 to 300 µL; column calibrated with LMW Gel Filtration kit

B1: VvROMT variant W20A (enzyme, Vitis vinifera, UniProt B6VJS4 1-357, looked up)
chain: MDLANGVISAELLHAQAHVANHIFNFIKSMSLKCAIQLGIPDIIHNHGKPMTLPELVAKLPVHPKRSQCVYRLMRILVHSGFLAAQRVQQGKEEEGYVLTDASRLLLMDDSLSIRPLVLAMLDPILTKPWHYLSAWFQNDDPTPFHTAYERSFWDYAGHEPQLNNSFNEAMASDARLLTSVLLKEGQGVFAGLNSLVDVGGGTGKVAKAIANAFPHLNCTVLDLSHVVAGLQGSKNLNYFAGDMFEAIPPADAILLKWILHDWSNEECVKILKRCREAIPSKENGGKVIIIDMIMMKNQGDYKSTETQLFFDMTMMIFAPGRERDENEWEKLFLDAGFSHYKITPILGLRSLIEVYP
notes: resveratrol O-methyltransferase (VvROMT), Vitis vinifera, GenBank FM178870, with W20A; made by Gibson Assembly on pET25-GB1-ROMT; source: E. coli BL21 (DE3), purified (IMAC HisTrap FF, TEV cleavage, second IMAC); not shown: His tag (on GB1), N-terminal, cleaved; GB1, N-terminal, cleaved
For B1, which “stoichiometry N” value is on record?
Its value is 2.

B2: VvROMT variant F24A (enzyme, Vitis vinifera, UniProt B6VJS4 1-357, looked up)
chain: B1 chain with A20W, F24A
notes: resveratrol O-methyltransferase (VvROMT), Vitis vinifera, GenBank FM178870, with F24A; made by Gibson Assembly on pET25-GB1-ROMT; source: E. coli BL21 (DE3), purified (IMAC HisTrap FF, TEV cleavage, second IMAC); not shown: His tag (on GB1), N-terminal, cleaved; GB1, N-terminal, cleaved
How did the “stoichiometry N” value turn out when B2 was run?
The value was 2.
